Patent US9383360B2, “Compositions and methods relating to lyme disease” (The United States of America, as represented by the …, priority 2012, dated 2016)

Columns and labels:
Aggrecan [1] = biological target: T1, Aggrecan (Bos taurus, UniProt P13608); assay: BbHtrA proteolysis assay, aggrecan substrate; assay type: biochemical, bovine, human; settings: native bovine aggrecan, SDS-PAGE, FIG. 4B
T1 construct: recombinant human aggrecan (G1-IGD-G2 domains)
Protocol: (§1) For proteolysis assays described in Examples herein, purified protein substrates (200-600 nM) and proteases (100-150 nM) were diluted in assay buffer (50 mM HEPES, pH 7.4, 5 mM CaCl2) and incubated overnight at 37° C. Samples were boiled for 4 minutes to inactivate the proteases. Proteoglycans were deglycosylated by overnight incubation at 37° C. with 0.01 U chondroitinase ABC (Seikagaku). Reactions were stopped by the addition of SDS/PAGE sample buffer, boiled for 4 minutes, and electrophoresed on pre-cast Tris-glycine gels (BioRad). Reaction products were visualized by silver staining.
(§2) BbHtrA cleaved recombinant human aggrecan (G1-IGD-G2 domains) within the IGD (FIG. 4A). Cleavage of recombinant aggrecan generated three high molecular weight proteolytic fragments which migrated at ˜110 kd, ˜60 kd and ˜50 kd.
(§3) BbHtrA also degraded native, fully glycosylated aggrecan (FIG. 4B, lane 5). Again, this degradation required BbHtrA catalytic activity (FIG. 4B, lane 6). The BbHtrA-generated aggrecan fragments appear to be a doublet, unlike those generated by HtrA1.
(§4) Purified proteins were incubated with BbHtrA or BbHtrA^S226A as described herein. HtrA (also known as DegP) proteases belong to the family of serine proteases which contain a highly reactive serine residue in their active site. This serine (Ser210 in DegP) is part of the canonical His-Ser-Asp catalytic triad and mutation of the catalytic serine abolishes proteolytic activity (Skorko-Glonek et al., 1995). In BbHtrA, residues His119, Ser226 and Asp149 form the catalytic triad and mutation of serine 226 to alanine abolished proteolytic activity as expected (FIG. 5).
(§5) Reaction products were separated by SDS-PAGE and silver stained. Native collagen II and recombinant tenascin C were not degraded by BbHtrA indicating selectivity for proteoglycans, E-cadherin and fibronectin. FIG. 5 is an image of SDS-PAGE analysis showing that BbHtrA degrades aggrecan, neurocan, versican, brevican, biglycan, decorin, E-cadherin, and casein.

Aggrecan [2] = assay: BbHtrA proteolysis assay, aggrecan substrate; assay type: biochemical, bovine, human; settings: SDS-PAGE
Protocol: as §1, §2, §3, §4, §5

Biglycan = assay: BbHtrA proteolysis assay, biglycan substrate; assay type: biochemical, bovine, human; settings: SDS-PAGE, FIG. 5
Protocol: as §1, §4
(§6) Reaction products were separated by SDS-PAGE and silver stained. Native collagen II and recombinant tenascin C were not degraded by BbHtrA indicating selectivity for proteoglycans, E-cadherin and fibronectin. […]

Neurocan = Neurocan (Homo sapiens, UniProt O14594); assay: BbHtrA proteolysis assay, neurocan substrate; assay type: biochemical; settings: SDS-PAGE, FIG. 5
Neurocan, sequence (O14594 23-1321): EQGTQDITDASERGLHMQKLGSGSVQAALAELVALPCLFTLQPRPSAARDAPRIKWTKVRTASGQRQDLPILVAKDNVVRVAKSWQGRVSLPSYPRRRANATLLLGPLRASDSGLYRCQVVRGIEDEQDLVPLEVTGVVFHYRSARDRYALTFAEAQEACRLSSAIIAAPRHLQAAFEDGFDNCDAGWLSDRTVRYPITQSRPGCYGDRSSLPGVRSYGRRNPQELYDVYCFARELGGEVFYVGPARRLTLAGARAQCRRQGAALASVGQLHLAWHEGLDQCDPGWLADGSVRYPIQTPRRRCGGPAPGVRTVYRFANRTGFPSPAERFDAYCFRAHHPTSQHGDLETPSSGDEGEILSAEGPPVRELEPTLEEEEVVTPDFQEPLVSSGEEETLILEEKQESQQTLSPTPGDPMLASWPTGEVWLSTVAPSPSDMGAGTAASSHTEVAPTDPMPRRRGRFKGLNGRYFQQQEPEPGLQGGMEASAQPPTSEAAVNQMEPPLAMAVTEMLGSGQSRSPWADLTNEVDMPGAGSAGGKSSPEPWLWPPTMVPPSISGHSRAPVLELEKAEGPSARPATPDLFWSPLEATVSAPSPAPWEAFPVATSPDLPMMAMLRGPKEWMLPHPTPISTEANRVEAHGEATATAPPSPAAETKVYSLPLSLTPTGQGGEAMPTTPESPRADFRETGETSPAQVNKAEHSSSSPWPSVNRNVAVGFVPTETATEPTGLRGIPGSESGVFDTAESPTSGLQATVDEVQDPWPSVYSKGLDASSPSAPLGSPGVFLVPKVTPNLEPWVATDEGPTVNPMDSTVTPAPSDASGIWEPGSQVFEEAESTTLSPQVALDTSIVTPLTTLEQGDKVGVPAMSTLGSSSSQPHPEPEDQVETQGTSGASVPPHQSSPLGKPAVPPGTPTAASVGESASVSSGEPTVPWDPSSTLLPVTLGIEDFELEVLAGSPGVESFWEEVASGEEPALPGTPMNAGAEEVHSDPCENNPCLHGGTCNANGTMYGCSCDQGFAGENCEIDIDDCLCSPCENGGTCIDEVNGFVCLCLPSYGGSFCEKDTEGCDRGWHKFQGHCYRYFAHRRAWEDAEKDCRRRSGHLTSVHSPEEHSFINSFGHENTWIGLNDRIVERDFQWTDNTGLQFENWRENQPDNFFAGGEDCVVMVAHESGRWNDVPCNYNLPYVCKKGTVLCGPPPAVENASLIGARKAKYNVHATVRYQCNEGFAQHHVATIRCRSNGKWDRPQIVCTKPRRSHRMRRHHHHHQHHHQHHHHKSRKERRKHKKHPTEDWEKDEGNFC
Protocol: as §1, §4, §6

β-casein = biological target: T2, β-casein (Bos taurus, UniProt P02666); assay: β-casein zymography; assay type: biochemical; settings: 1 μg recombinant protein, 12% β-casein zymogram gel, developed 40 h at 37° C., FIG. 12A
T2 construct: purchased Bio-Rad
T2 sequence (P02666 16-224): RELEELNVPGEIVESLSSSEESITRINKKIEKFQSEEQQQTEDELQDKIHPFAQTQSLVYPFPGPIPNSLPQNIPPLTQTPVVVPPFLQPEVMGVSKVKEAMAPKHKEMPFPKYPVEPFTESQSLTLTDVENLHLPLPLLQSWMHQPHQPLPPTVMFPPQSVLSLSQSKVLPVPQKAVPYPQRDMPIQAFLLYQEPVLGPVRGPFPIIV
Protocol: Proteolytic activity was studied by zymography of lysates of the prototype strains of each of the major genospecies of Borrelia that cause Lyme disease. Borrelia burgdorferi (passage 4, non-clonal, infectious strain B31), Borrelia garinii (unknown passage, infectious strain FR-20047) and Borrelia afzelii (unknown passage, infectious strain ACA-1) were grown in Barbour-Stoenner-Kelly media (BSK II) supplemented with 6% rabbit serum at 37° C. Borrelial lysates (˜1×10^8 B. garinii, B. afzelii; ˜5×10^7 B. burgdorferi) and recombinant BbHtrA proteins (1 μg) were subjected to SDS-PAGE electrophoresis using 12% β-casein Zymogram Ready Gels (Bio-Rad). Following electrophoresis, the gels were renatured in 2.5% Triton X-100 (Sigma) for 60 min at 37° C. with a buffer change at 15 min. The gels were developed in Zymogram Development Buffer (BioRad) for 40 h at 37° C. with a buffer change at 15 min. Gels were stained (0.5% Coomassie Brilliant Blue R-250, 40% methanol, 10% glacial acetic acid) for 60 min at room temperature and then destained (40% methanol, 10% glacial acetic acid).

T1 sequence (P13608 17-2364): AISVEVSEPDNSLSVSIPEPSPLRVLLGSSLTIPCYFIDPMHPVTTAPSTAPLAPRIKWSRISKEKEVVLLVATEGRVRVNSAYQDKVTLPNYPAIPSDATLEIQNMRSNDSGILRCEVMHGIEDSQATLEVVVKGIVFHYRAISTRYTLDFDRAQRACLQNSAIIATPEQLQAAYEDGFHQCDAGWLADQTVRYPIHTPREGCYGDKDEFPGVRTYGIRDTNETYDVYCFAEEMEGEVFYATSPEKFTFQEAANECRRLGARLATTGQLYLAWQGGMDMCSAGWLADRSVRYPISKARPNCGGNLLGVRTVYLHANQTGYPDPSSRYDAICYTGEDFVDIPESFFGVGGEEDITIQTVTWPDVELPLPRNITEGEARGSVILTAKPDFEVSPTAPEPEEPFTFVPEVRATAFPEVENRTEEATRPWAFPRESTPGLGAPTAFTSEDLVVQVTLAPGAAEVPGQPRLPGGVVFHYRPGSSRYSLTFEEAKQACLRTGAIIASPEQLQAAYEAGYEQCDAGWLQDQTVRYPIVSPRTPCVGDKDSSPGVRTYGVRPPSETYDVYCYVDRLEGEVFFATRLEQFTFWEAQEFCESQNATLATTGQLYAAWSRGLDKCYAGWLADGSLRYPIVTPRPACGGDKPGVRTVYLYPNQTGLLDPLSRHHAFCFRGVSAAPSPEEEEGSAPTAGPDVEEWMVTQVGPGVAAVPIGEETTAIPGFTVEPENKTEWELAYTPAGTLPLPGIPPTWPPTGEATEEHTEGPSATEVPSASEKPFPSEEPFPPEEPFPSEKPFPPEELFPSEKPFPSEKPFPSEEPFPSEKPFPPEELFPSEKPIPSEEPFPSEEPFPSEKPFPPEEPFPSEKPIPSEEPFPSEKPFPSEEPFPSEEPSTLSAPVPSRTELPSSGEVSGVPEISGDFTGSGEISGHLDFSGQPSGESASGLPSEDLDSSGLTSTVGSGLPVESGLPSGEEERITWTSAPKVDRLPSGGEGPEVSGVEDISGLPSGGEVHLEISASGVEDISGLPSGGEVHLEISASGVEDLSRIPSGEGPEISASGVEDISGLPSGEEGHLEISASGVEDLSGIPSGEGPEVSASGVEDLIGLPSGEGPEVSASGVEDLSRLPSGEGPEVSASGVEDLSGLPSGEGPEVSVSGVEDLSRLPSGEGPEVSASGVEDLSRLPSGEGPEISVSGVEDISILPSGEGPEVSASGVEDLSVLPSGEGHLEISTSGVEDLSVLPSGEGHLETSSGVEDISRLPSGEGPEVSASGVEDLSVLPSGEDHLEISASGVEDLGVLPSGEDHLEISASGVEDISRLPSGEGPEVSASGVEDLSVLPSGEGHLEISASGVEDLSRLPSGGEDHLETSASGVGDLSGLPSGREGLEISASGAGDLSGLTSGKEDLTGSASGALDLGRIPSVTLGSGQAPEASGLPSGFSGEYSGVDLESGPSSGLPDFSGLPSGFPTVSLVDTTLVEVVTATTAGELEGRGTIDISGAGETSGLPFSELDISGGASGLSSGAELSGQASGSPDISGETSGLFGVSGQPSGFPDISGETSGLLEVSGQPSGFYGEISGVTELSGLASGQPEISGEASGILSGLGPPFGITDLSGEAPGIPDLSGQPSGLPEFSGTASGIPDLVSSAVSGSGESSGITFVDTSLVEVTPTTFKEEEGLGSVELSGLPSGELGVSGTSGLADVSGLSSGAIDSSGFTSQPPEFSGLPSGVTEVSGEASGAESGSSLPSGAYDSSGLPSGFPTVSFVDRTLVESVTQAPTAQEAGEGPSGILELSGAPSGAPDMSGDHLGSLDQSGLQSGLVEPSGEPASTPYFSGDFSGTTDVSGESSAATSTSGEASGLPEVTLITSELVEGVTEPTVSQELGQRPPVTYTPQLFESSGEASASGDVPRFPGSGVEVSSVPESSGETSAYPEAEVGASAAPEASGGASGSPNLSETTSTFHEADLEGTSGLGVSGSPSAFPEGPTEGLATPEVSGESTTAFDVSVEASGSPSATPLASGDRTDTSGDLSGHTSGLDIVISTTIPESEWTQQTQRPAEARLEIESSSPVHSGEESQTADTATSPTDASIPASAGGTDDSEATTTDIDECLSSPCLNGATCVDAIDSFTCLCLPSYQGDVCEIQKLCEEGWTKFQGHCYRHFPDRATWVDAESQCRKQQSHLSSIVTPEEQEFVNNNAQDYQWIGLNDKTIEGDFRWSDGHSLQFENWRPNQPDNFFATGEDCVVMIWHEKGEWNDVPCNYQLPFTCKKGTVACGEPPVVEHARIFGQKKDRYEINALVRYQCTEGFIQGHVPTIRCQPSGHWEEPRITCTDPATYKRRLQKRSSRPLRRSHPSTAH

B1: BbHtrA: Recombinant wild type B. burgdorferi HtrA serine protease, mature protein amino acids 38-474, expressed in E. coli (SEQ ID NO:1, 9) (protein, listed as Borrelia burgdorferi)
chain: EEKDNTVRALQDSFREVSKKILPSSVEVHATGVIKQSFPIPFFFFDMPEFDSERKSNWAGSGVIIGRDSQKKSLFYVVTNSHVVDKATELEVVSYDKKKHKAKLIGKDEKKDIALISFESDDATIKVADLGDSDKLEIGDWVMAVGSPFQFSFTVTAGIVSGLQRSANPNLQSRNLFIQTDAAINRGNSGGPLVNIKGEVIGINAWIASNSGGNIGLGFAIPVNNIKSTVDFFLKGKKIESAWLGISFYPLKTRDSEVLKSLGVESNDVSAAIIASLYPGSPAVKSGLRAGDIIMKVNGVSMSVFQDVTSYISDFYAGEKVNVEILRGNVKKNIEIVLAVRPKDKELSSSKMLPGFVVYPLVEDIKAQLNLRNWIKGVVVDYIDKNLASNIKMKSGDVILSVNSKSVSNLREFYDALEVGKNTYKILRGNDSFKITF
Aggrecan [1]
  Degradation of native, fully glycosylated aggrecan: degraded
Aggrecan [2]; FIG. 5
  Degradation of aggrecan: degrades
Aggrecan [2]; silver stain, FIG. 4A
  Cleavage of recombinant human aggrecan (G1-IGD-G2 domains) within the IGD: cleaved
Biglycan
  Degradation of biglycan: degrades
Neurocan
  Degradation of neurocan: degrades
β-casein
  Proteolytic activity against β-casein (clearing around the protein band): proteolytically active
